We go through one substance from patent US20110192416A1.

For this test, the target named is human hair (keratin-containing material) (human). Nature of the test: Hair adherence test: His-tagged protein incubated with cut human hair, detected with anti-poly-histidine peroxidase conjugate and TMB; buffer background 0.05.

“comparable protein YaaD of B. subtilis with a His-tag (from UniProt P37527 1-294)” registered an absorption at 405 nm of 0.12 A405.
